Laboratory results reported in article PMC8654305.

Molecular target: recombinant C-terminal StrepII-tagged ScSbtB (SbtB from Synechocystis sp. PCC 6803) (Synechocystis sp. PCC 6803), P73954
Test: crystal structure
Conditions: remark: other sources report otherwise

stoichiometry N: 3
B1: recombinant C-terminal StrepII-tagged ScSbtB (SbtB from Synechocystis sp. PCC 6803), P73954 1-110 (natural protein)
chain: MAKPANKLVIVTEKILLKKIAKIIDESGAKGYTVMNTGGKGSRNVRSSGQPNTSDIEANIKFEILTETREMAEEIADRVAVKYFNDYAGIIYICSAEVLYGHTFCGPEGC
